Laboratory results from patent US20220143148A1, “COMPOSITIONS AND METHODS FOR MODULATING CGRP SIGNALING TO REGULATE INTESTINAL INNATE LYMPHOID CELLS” (The Broad Institute, Inc., priority 2019, published 2022).

Test system: small intestinal immune cells
Assay: Droplet-based scRNA-seq of small intestinal immune cells (LP and PP), OVA vs PBS, clustering and differential expression
Format: in vivo, mouse
Details: cluster ID 5, PP
Source text: To comprehensively characterize small intestinal immune cells, Applicants generated scRNA-Seq profiles for 58,067 immune cells collected from lamina propria (LP) and Peyer's patch (PP) regions at steady state and after induction of a type 2 inflammatory reaction to ovalbumin (OVA) (Brandt et al., 2003) (FIGS. 1A and 8A). To ensure sufficient representation of rare cells, Applicants combined a normalization strategy—removing by flow sorting either a portion of IgD+ naïve B cells, which are the most abundant cell type in PPs, or all CD19+ and CD3+ T cells (FIG. 8B, Methods)—with profiling of a sufficiently large number of cells number (P>0.99 to recover at least 15 cells from each cluster, Methods) by massively parallel scRNA-seq (Haber et al., 2017) (Methods). Applicants obtained 36,797 and 21,270 high quality cells passing initial filtering (Methods) from PP and LP regions, respectively.
Overall, Applicants annotated 27 cell subsets across the two compartments, spanning T cells, B cells, ILCs, dendritic cells (DCs), myeloid cells and stromal cells, in frequencies ranging from 0.07% to 14%. Briefly, Applicants first partitioned the cells from the PP regions by unsupervised clustering (Methods) into 46 clusters, retained the 97% of cells that were robustly assigned cell identities in each cluster (Methods), assigned the cells from the LP regions to the 46 clusters using a classifier (Methods), and visualized the data with scvis (Ding et al., 2018), a deep generative model-based method (FIGS. 1B and 8C, Methods). Next, Applicants identified genes that were differentially expressed between the cells in each cluster and the remaining cells (Table 1, Methods), as well as between pairs of clusters (Table 2), to elucidate identities of similar cell types/states. Applicants excluded from downstream analysis clusters mostly consisting of contaminants from epithelium, likely doublets, or cells with a small number of Unique Molecular Identifiers (UMIs) (FIGS. 1C and 8D), or lacking distinct markers (Methods). Altogether, Applicants retained 27 clusters spanning 85% of the cells and each associated with distinct marker genes (FIG. 8E, Methods).
To induce allergic reaction to OVA, 6 to 7 weeks old mice were sensitized twice, two weeks apart, with 50 μg of OVA plus 1 mg of aluminum potassium sulfate adjuvant via intraperitoneal injection. Two weeks later, mice were orally administered with 50 mg of OVA on every other day for a total of five times. 1 μg of α-CGRP peptide was administered simultaneously when indicated. Mice were deprived of food for 3-4 hours in cages with wood chip bedding for limiting antigen degradation in the stomach before each intragastric challenge.
Isolation of cells from Peyer's patches (PPs). Peyer's patches (PPs) were carefully dissected from the small intestine under a stereo microscope using a fine scissor, pierced once with a fine forcep. Tissues were digested in freshly made digestion buffer (RPMI-1640 containing 100 μg/ml Liberase™ and 50 μg/ml DNase I at 37° C. on a roto-mixer. After 15 min, tissues were very gently mixed using a 1 ml pipette. The supernatant was collected and added to ice-cold MACS buffer (pH 7.4; PBS plus 2% FCS and 2 mM EDTA). Pre-warmed (37° C.) fresh digestion buffer was added to the remaining tissues. After rotation at 37° C. for 15 min, the mixture was vigorously mixed using a 1 ml pipette for 1 min. Supernatants from the two steps were combined and passed through 70 μm filters and stained for FACS (below).
Isolation of cells from the lamina propria (LP). The small intestines were opened longitudinally and washed in ice-cold PBS. For scRNA-seq, roughly 0.5 cm of fragments from each of the distal, middle and proximal regions without visible PPs were collected. Epithelial cells were dissociated by tissue rotation in pre-warmed (37° C.) PBS containing 10 mM EDTA at 37° C. for 15 min, followed by additional incubation on ice for 15 min. Tissues were then shaken vigorously. […]

B1: OVA (protein, UniProt P01012 2-386, looked up)
Ovalbumin: GSIGAASMEFCFDVFKELKVHHANENIFYCPIAIMSALAMVYLGAKDSTRTQINKVVRFDKLPGFGDSIEAQCGTSVNVHSSLRDILNQITKPNDVYSFSLASRLYAEERYPILPEYLQCVKELYRGGLEPINFQTAADQARELINSWVESQTNGIIRNVLQPSSVDSQTAMVLVNAIVFKGLWEKAFKDEDTQAMPFRVTEQESKPVQMMYQIGLFRVASMASEKMKILELPFASGTMSMLVLLPDEVSGLEQLESIINFEKLTEWTSSNVMEERKIKVYLPRMKMEEKYNLTSVLMAMGITDVFSSSANLSGISSAESLKISQAVHAAHAEINEAGREVVGSAEAGVDAASVSEEFRADHPFLFCIKHIATNAVLFFGRCVSP
- Calm1: percentage of expressing cells in OVA-treated group: 0.868
- Cd74: percentage of expressing cells in OVA-treated group: 0.501
- Crlf3: percentage of expressing cells in OVA-treated group: 0.569
- Ctsc: percentage of expressing cells in OVA-treated group: 0.268
- Ddit4: percentage of expressing cells in OVA-treated group: 0.369
- Dnaja1: percentage of expressing cells in OVA-treated group: 0.591
- Dnajb1: percentage of expressing cells in OVA-treated group: 0.206
- Dusp1: percentage of expressing cells in OVA-treated group: 0.206
- DynIl1: percentage of expressing cells in OVA-treated group: 0.7
- Gramd3: percentage of expressing cells in OVA-treated group: 0.475
- Hspa8: percentage of expressing cells in OVA-treated group: 0.977
- Ier2: percentage of expressing cells in OVA-treated group: 0.428
- Ifngr1: percentage of expressing cells in OVA-treated group: 0.563
- Igha: percentage of expressing cells in OVA-treated group: 0.197
- Il7r: percentage of expressing cells in OVA-treated group: 0.48
- Ilk: percentage of expressing cells in OVA-treated group: 0.2
- Jund: percentage of expressing cells in OVA-treated group: 0.654
- Klf6: percentage of expressing cells in OVA-treated group: 0.368
- Klhl6: percentage of expressing cells in OVA-treated group: 0.332
- Lfng: percentage of expressing cells in OVA-treated group: 0.333
- Ltb: percentage of expressing cells in OVA-treated group: 0.865
- Pdcd4: percentage of expressing cells in OVA-treated group: 0.66
- Pik3ip1: percentage of expressing cells in OVA-treated group: 0.556
- Ppp1r15a: percentage of expressing cells in OVA-treated group: 0.219
- Ppp2ca: percentage of expressing cells in OVA-treated group: 0.277
- Ppp3cc: percentage of expressing cells in OVA-treated group: 0.152
- Racgap1: percentage of expressing cells in OVA-treated group: 0.21
- Rnaset2a: percentage of expressing cells in OVA-treated group: 0.709
- Sfpq: percentage of expressing cells in OVA-treated group: 0.284
- Slc9a3r1: percentage of expressing cells in OVA-treated group: 0.428
- Tdrp: percentage of expressing cells in OVA-treated group: 0.228
- Tpm3: percentage of expressing cells in OVA-treated group: 0.665
- Tsc22d3: percentage of expressing cells in OVA-treated group: 0.84
- Tuba1a: percentage of expressing cells in OVA-treated group: 0.302
- Txnip: percentage of expressing cells in OVA-treated group: 0.605
- Uba52: percentage of expressing cells in OVA-treated group: 0.984
- Ucp2: percentage of expressing cells in OVA-treated group: 0.773
- Wdr89: percentage of expressing cells in OVA-treated group: 0.996
- Zfp36l2: percentage of expressing cells in OVA-treated group: 0.617
- 1810037l17Rik: LN (average fold change) (OVA vs PBS): −0.158
- Bcl2: LN (average fold change) (OVA vs PBS): 0.658
- Calm1: LN (average fold change) (OVA vs PBS): −0.192
- Cd74: LN (average fold change) (OVA vs PBS): −0.211
- Crlf3: LN (average fold change) (OVA vs PBS): 0.370
- Ctsc: LN (average fold change) (OVA vs PBS): 0.402
- Ddit4: LN (average fold change) (OVA vs PBS): 0.426
- Dnaja1: LN (average fold change) (OVA vs PBS): −0.416
- Dnajb1: LN (average fold change) (OVA vs PBS): −0.867
- Dusp1: LN (average fold change) (OVA vs PBS): −0.321
- DynIl1: LN (average fold change) (OVA vs PBS): −0.370
- Gramd3: LN (average fold change) (OVA vs PBS): 0.481
- Hspa8: LN (average fold change) (OVA vs PBS): −0.255
- Ier2: LN (average fold change) (OVA vs PBS): −0.174
- Ifngr1: LN (average fold change) (OVA vs PBS): 0.536
- Igha: LN (average fold change) (OVA vs PBS): 0.503
- Il7r: LN (average fold change) (OVA vs PBS): 0.612
- Ilk: LN (average fold change) (OVA vs PBS): 0.159
- Jund: LN (average fold change) (OVA vs PBS): −0.319
- Klf6: LN (average fold change) (OVA vs PBS): −0.374
- Klhl6: LN (average fold change) (OVA vs PBS): 0.485
- Lfng: LN (average fold change) (OVA vs PBS): −0.281
- Ltb: LN (average fold change) (OVA vs PBS): −0.238
- Pdcd4: LN (average fold change) (OVA vs PBS): 0.394
- Pik3ip1: LN (average fold change) (OVA vs PBS): 0.361
- Ppp1r15a: LN (average fold change) (OVA vs PBS): −0.287
- Ppp2ca: LN (average fold change) (OVA vs PBS): −0.469
- Ppp3cc: LN (average fold change) (OVA vs PBS): 0.621
- Racgap1: LN (average fold change) (OVA vs PBS): 0.436
- Rnaset2a: LN (average fold change) (OVA vs PBS): 0.225
- Sfpq: LN (average fold change) (OVA vs PBS): −0.373
- Slc9a3r1: LN (average fold change) (OVA vs PBS): −0.256
- Tdrp: LN (average fold change) (OVA vs PBS): −0.354
- Tpm3: LN (average fold change) (OVA vs PBS): 0.282
- Tsc22d3: LN (average fold change) (OVA vs PBS): 0.772
- Tuba1a: LN (average fold change) (OVA vs PBS): −0.250
